Tests used:
[1] = molecular target: MET receptor tyrosine kinase, wild type, full length, P08581
[2] = molecular target: T1, Recombinant human Smad2 (NM 005901) with C-terminal MYC/DDK tag (human, UniProt Q15796 1-467); experiment: peptide-protein interaction assay: M10 and DDK-tagged Smad2 (1 µg each), capture with C12 antibody and protein G sepharose, anti-DDK immunoblot
T1 construct: Bought from OriGene; also called DDK-tagged recombinant Smad2; DDK-tagged Smad2; not shown: C-terminal MYC/DDK tag
T1 sequence (Q15796 whole entry): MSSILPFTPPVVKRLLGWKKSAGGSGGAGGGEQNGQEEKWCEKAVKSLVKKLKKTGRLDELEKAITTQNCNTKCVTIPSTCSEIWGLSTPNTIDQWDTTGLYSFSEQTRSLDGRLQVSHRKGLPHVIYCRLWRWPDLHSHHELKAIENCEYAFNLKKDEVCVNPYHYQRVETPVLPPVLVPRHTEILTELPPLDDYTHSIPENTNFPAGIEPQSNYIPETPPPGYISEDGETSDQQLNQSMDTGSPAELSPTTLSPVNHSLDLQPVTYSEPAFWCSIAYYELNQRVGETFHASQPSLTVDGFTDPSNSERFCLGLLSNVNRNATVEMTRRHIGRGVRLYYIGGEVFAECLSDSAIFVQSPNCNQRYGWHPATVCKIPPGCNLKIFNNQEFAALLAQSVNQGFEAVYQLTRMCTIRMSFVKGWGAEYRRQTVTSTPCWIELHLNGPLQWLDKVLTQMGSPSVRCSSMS

[3] = molecular target: T2, Recombinant human Smad4 (NM 005359) with C-terminal MYC/DDK tag (human, UniProt Q13485 1-552); experiment: peptide-protein interaction assay: capture with C12 antibody and protein G sepharose, anti-DDK immunoblot
T2 construct: Bought from OriGene; also called DDK-tagged recombinant Smad4; DDK-tagged Smad4; not shown: C-terminal MYC/DDK tag
T2 sequence (looked up): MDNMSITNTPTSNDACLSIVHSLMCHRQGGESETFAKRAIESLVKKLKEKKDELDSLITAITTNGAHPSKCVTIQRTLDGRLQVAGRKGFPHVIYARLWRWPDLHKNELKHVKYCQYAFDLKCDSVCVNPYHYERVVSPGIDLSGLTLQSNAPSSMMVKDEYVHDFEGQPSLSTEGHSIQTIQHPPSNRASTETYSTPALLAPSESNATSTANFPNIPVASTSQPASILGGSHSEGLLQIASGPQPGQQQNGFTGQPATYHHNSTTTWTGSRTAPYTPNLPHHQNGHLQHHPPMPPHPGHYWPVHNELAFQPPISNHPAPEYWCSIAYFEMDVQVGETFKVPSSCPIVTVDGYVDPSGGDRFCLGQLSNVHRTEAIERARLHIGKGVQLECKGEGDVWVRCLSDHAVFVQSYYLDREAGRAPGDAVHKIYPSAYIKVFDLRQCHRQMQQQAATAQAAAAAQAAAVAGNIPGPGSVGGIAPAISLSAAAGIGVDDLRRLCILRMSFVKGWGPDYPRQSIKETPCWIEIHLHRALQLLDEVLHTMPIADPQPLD

Sequence of MET receptor tyrosine kinase, wild type, full length, P08581 (P08581 whole entry, looked up): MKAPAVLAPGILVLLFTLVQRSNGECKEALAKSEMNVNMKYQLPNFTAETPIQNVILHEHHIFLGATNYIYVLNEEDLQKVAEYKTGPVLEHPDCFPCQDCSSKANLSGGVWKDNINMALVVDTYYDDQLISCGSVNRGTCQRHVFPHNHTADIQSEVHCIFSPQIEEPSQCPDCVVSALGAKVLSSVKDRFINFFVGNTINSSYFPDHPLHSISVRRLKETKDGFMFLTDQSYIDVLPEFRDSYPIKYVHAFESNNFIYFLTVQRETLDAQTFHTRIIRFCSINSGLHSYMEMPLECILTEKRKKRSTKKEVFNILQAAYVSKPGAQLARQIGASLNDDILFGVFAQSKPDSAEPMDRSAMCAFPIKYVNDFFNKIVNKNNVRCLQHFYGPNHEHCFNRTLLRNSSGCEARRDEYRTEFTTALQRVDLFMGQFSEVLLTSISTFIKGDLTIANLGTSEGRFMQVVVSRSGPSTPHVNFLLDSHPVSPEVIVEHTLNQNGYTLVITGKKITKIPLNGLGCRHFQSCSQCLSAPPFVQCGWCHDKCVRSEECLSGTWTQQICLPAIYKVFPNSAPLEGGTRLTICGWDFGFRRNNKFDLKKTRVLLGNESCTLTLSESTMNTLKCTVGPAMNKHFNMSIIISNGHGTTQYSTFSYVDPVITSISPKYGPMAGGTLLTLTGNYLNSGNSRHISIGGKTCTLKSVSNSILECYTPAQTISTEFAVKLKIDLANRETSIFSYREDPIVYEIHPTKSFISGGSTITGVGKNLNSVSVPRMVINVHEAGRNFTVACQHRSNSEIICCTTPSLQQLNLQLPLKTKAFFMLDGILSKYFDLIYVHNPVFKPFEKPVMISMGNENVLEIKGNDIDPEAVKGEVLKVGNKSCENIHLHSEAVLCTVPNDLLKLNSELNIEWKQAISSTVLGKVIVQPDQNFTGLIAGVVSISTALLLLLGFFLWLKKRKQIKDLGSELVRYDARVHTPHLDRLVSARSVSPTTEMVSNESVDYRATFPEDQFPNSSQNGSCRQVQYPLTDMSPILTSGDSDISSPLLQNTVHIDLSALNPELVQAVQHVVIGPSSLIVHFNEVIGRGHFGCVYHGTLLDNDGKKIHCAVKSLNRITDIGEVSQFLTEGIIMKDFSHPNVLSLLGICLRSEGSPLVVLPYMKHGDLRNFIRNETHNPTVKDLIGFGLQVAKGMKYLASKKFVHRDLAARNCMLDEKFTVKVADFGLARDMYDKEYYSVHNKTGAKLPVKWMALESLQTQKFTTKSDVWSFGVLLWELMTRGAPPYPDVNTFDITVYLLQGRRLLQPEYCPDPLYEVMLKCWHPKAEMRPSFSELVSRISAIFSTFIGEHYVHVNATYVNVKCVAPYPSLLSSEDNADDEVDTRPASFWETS

B1: caspase-3 (activated, endogenous in lung fibroblasts and alveolar epithelial cells) (protein)
chain: SGISLDNSYKMDYPEMGLCIIINNKNFHKSTGMTSRSGTDVDAANLRETFRNLKYEVRNKNDLTREEIVELMRDVSKEDHSKRSSFVCVLLSHGEEGIIFGTNGPVDLKKITNFFRGDRCRSLTGKPKLFIIQACRGTELDCGIETDSGVDDDMACHKIPVEADFLYAYSTAPGYYSWRNSKDGSWFIQSLCAMLKQYADKLEFMHILTRVNRKVATEFESFSFDATFHAKKQIPCIVSMLTKELYFYH
[1]
  cleavage of the MET C-terminus (loss of C12 signal in Western blot): Cisplatin-induced caspase-3 cleavage was associated with a loss of detectable MET protein in Western blots with the C12 antibody

B2: M10 peptide (TRPASFWETS), synthetic (peptide)
peptide: TRPASFWETS
notes: Synthetic peptide from GenScript; A 5,6-TAMRA conjugate (at the N-terminus) was used only for localisation; also called 2 kD C-terminal fragment (M10) of the MET receptor; last 10 amino acids of MET
[2]
  binding result: binds
[3]
  binding result: no binding (tested: 1 µg each)

— patent publication US20180215802A1 (MUSC FOUNDATION FOR RESEARCH DEVELOPMENT, published 2018)
